Legend:
KDR (1-3) [1] = target: T1, KDR (1-3) (UniProt P35968 20-327, limits assumed); assay: competition ELISA (Example 7): serially diluted unlabelled native VEGF (8-109) incubated with biotinylated native VEGF (8-109) (84 nM) and KDR (1-3) (1 ug/ml), complex captured on anti-KDR antibody MAKD5, detected with peroxidase-streptavidin, OD 450
T1 construct: domain: KDR (1-3); Soluble KDR (1-3) at 1 ug/ml, captured on anti-KDR antibody MAKD5; also called KDR (1-3) monomer
Protocol: (§1) Aliquots of this mixture (100 μl) were added to the precoated microtiter wells and the plate was incubated for 1 hour at room temperature.
(§2) The wells were then incubated with 3,3′,5,5′-tetramethyl benzidine (0.2 gram/liter; Kirkegaard & Perry Laboratories, Gaithersburg, Md.) for about 10 minutes at room temperature. Absorbance was read at 450 nm on a Vmax plate reader (Molecular Devices, Menlo Park, Calif.).
(§3) Titration curves were fit with a four-parameter nonlinear regression curve-fitting program (KaleidaGraph, Synergy Software, Reading, Pa.).

[2] = target: T2, Flt-IgG (a chimeric Flt-human Fc molecule) (human, UniProt P17948 27-758, limits assumed); assay: competition ELISA: displacement of biotinylated native VEGF from Flt-IgG
T2 construct: not shown: human IgG Fc
Protocol: The wells were filled with 100 μl of a solution containing Flt-IgG (a chimeric Flt-human Fc molecule) at 50 ng/ml in assay buffer (0.5% BSA, 0.05% Tween 20 in PBS). The wells were incubated at room temperature for 1 hour and then washed three times in wash buffer (0.05% Tween 20 in PBS).
Aliquots of the mixture (100 μl) were added to the precoated microtiter wells and the plate was incubated for 2 hours at room temperature. […] The wells were then incubated with […] (0.2 g/liter, Kirkegaard & Perry Laboratories, Gaithersburg, Md.) for about 10 minutes at room temperature. Absorbance was read at 450 nm on a Vmax plate reader (Molecular Devices, Menlo Park, Calif.).
as §3

KDR (1-3) [3] = target: T1, KDR (1-3); assay: competition ELISA: displacement of biotinylated native VEGF (8-109) from KDR (1-3)
Protocol: as §1, §2, §3

[4] = target: KDR receptor with a gD tag at the N-terminus, on CHO cells (UniProt P35968 20-1356); assay: cell-based or functional assay
[5] = target: FLT-1 Receptor (RIA of Example 11) (UniProt P17948 27-758, limits assumed); assay: RIA, essentially as in Muller et al. 1997
[6] = target: KDR Receptor (RIA of Example 11) (UniProt P35968 20-764, limits assumed); assay: RIA, essentially as in Muller et al. 1997
[7] = target: KDR receptor on human umbilical vein endothelial cells (HUVEC) (human, UniProt P35968 20-1356); assay: cell-based or functional assay
KDR (1-3) [8] = target: T1, KDR (1-3); assay: competition ELISA: displacement of biotinylated native VEGF (8-109) from KDR (1-3); concentration at midpoint absorbance
Protocol: as §1, §2, §3

T1 sequence (P35968 20-327 limits assumed): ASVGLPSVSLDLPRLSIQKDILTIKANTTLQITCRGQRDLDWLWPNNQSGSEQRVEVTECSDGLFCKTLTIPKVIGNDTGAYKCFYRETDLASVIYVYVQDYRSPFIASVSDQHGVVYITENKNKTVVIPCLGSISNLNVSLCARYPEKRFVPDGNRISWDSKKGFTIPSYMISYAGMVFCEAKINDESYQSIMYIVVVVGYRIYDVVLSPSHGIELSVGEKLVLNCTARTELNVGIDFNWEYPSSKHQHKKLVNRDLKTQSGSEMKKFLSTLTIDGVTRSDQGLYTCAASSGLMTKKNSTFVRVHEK
T2 sequence (P17948 27-758 limits assumed, change not shown): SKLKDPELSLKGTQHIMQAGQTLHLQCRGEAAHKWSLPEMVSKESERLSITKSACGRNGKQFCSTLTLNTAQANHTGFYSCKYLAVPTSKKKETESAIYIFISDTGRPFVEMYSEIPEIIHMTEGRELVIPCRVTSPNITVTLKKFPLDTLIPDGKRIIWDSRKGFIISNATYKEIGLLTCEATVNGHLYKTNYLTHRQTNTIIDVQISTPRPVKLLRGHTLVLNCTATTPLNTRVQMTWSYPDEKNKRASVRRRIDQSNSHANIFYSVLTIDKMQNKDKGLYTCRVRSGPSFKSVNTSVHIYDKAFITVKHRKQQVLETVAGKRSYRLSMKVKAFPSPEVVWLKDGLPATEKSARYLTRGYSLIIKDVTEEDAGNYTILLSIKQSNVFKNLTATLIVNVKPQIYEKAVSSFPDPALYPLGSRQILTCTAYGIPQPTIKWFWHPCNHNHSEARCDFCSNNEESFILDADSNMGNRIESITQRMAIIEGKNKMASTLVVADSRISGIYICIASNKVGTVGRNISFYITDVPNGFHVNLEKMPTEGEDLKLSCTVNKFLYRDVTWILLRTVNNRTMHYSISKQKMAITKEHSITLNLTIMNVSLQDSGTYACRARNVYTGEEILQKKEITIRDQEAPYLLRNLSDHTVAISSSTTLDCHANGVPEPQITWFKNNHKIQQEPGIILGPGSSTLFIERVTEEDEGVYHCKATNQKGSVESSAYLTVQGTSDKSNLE
Sequence of KDR receptor on human umbilical vein endothelial cells (HUVEC) (P35968 20-1356): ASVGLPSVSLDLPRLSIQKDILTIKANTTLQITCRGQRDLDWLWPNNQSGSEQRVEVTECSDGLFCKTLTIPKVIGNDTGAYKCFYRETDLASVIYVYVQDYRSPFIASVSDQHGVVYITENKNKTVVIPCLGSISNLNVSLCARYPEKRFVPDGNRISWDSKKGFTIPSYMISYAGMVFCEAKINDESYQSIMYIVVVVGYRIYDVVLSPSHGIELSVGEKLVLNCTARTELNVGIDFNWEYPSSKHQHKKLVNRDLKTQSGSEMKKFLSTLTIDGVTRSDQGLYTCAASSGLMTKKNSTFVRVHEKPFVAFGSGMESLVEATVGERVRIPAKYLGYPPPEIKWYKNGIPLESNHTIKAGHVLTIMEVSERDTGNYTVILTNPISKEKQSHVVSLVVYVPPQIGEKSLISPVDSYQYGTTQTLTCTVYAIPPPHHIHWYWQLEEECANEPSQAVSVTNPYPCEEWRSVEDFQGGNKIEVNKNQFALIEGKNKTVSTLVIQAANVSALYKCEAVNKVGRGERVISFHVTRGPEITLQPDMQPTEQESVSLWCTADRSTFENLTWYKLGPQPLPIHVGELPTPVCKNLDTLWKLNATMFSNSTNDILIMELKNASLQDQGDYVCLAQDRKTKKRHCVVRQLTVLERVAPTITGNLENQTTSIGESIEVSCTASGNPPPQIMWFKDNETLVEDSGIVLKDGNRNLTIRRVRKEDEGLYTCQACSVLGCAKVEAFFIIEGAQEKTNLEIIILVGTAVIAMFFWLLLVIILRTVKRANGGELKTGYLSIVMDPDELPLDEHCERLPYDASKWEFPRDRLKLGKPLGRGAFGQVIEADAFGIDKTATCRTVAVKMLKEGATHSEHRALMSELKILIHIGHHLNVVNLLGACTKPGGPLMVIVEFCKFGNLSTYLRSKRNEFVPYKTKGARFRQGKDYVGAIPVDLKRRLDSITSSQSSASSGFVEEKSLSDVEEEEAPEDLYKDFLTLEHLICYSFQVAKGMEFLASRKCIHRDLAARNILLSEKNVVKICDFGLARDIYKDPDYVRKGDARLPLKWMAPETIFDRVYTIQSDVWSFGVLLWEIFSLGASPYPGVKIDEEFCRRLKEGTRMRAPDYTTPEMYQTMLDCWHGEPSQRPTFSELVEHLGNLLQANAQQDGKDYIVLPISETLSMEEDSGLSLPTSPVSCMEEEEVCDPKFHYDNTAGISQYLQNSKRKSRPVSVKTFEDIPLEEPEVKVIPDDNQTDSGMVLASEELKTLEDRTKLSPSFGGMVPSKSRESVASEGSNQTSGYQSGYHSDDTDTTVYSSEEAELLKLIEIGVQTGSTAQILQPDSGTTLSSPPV
Sequence of FLT-1 Receptor (RIA of Example 11) (P17948 27-758 limits assumed): as the sequence (P17948 27-758 limits assumed, change not shown) above
Sequence of KDR Receptor (RIA of Example 11) (P35968 20-764 limits assumed): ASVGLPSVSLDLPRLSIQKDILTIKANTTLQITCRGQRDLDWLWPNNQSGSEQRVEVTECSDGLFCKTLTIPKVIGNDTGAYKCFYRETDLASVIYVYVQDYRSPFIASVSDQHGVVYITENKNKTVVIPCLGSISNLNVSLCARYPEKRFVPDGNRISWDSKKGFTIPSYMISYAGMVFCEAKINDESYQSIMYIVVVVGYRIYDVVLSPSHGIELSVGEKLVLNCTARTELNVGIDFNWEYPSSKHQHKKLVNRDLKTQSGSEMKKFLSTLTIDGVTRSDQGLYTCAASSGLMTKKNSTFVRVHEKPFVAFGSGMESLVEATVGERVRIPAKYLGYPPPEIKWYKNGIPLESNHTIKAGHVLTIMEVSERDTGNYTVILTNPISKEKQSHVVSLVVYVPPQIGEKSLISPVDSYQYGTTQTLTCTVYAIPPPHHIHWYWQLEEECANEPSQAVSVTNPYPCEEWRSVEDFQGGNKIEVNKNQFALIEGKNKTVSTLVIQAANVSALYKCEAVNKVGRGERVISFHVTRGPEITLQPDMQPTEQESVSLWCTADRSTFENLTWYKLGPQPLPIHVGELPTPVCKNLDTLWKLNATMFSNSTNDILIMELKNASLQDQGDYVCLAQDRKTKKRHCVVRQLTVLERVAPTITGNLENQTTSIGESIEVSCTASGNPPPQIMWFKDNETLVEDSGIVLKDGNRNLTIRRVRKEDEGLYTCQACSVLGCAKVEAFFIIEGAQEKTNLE

B1: Native VEGF (8-109) (ligand)
chain: GQNHHEVVKFMDVYQRSYCHPIETLVDIFQEYPDEIEYIFKPSCVPLMRCGGCCNDEGLECVPTEESNITMQIMRIKPHQGQHIGEMSFLQHNKCECRPKKD
IC50 (read off the curve) (KDR (1-3) [1]): ~2 nM

B2: LK-VRB-1s* (ligand)
chain: APMAEGGGQNHHEVVKFEDVLRRSSCHPIETLVDIFQEYPDEIEYIFKPSCVPLMRCGGCCNDEGLECVPTEESNITMQIMRIKPHQGQHIGEMSFLQHNKCECRPKKD
relative binding affinity (ratio to native VEGF (8-109)) [2]: 6000 fold | relative binding affinity (ratio to native VEGF (8-109)) (KDR (1-3) [3]): 1 fold | Phosphorylation-Inducing Activity (KIRA), ratio to native VEGF (8-109) [4]: 0.5 fold | relative binding affinity (ratio to native VEGF 165) [5]: 14000 fold | relative binding affinity (ratio to native VEGF 165) [6]: 20 fold | Endothelial Cell Proliferation Activity (HUVEC), ratio to native VEGF (8-109) [7]: 0.2 fold

B3: LK-VRB-19s (ligand)
chain: APMAEGGGQNHHEVVKFEDVYRRSSCHPIETLVDIFQEYPDEIEYIFKPSCVPLMRCGGCCNSEMRECVPTEESNITMQIMRIKPHQGQHIGEMSFLQHNKCECRPKKD
IC50 (KDR (1-3) [8]): 7 nM | relative binding affinity (ratio to native VEGF (8-109)) (KDR (1-3) [3]): 7 fold

B4: LK-VRB-16s (ligand)
chain: APMAEGGGQNHHEVVKFMDVYRRSSCHPIETLVDIFQEYPDEIEYIFKPSCVPLMRCGGCCNSEMRECVPTEESNITMQIMRIKPHQGQHIGEMSFLQHNKCECRPKKD
relative binding affinity (ratio to native VEGF (8-109)) (KDR (1-3) [3]): 0.6 fold

B5: LK-VRB-7s* (ligand)
chain: APMAEGGGQNHHEVVKFEDVYQRSYCHPIETLVDIFQEYPDEIEYIFKPSCVPLMRCGGCCNSEMRECVPTEESNITMQIMRIKPHQGQHIGEMSFLQHNKCECRPKKD
relative binding affinity (ratio to native VEGF (8-109)) (KDR (1-3) [3]): 1 fold | Endothelial Cell Proliferation Activity (HUVEC), ratio to native VEGF (8-109) [7]: 1 fold

B6: LK-VRB-10s (ligand)
chain: APMAEGGGQNHHEVVKFMDVYQRSSCHPIETLVDIFQEYPDEIEYIFKPSCVPLMRCGGCCNSEMRECVPTEESNITMQIMRIKPHQGQHIGEMSFLQHNKCECRPKKD
relative binding affinity (ratio to native VEGF (8-109)) (KDR (1-3) [3]): 0.5 fold

B7: LK-VRB-4s (ligand)
chain: APMAEGGGQNHHEVVKIEDVFERSICHPIETLVDIFQEYPDEIEYIFKPSCVPLMRCGGCCNDEGLECVPTEESNITMQIMRIKPHQGQHIGEMSFLQHNKCECRPKKD
notes: the codon printed for Y25I is CAC (His)
relative binding affinity (ratio to native VEGF (8-109)) [2]: 200 fold | relative binding affinity (ratio to native VEGF (8-109)) (KDR (1-3) [3]): 1 fold | Phosphorylation-Inducing Activity (KIRA), ratio to native VEGF (8-109) [4]: 0.5 fold

B8: LK-VRB-23s (ligand)
chain: APMAEGGGQNHHEVVKFEDVLRRSSCHPIETLVDIFQEYPDEIEYIFKPSCVPLMRCGGCCNDEGRECVPTEESNITMQIMRIKPHQGQHIGEMSFLQHNKCECRPKKD
relative binding affinity (ratio to native VEGF (8-109)) (KDR (1-3) [3]): 11 fold

B9: LK-VRB-11s (ligand)
chain: APMAEGGGQNHHEVVKFEDVLQRSYCHPIETLVDIFQEYPDEIEYIFKPSCVPLMRCGGCCNSEMRECVPTEESNITMQIMRIKPHQGQHIGEMSFLQHNKCECRPKKD
relative binding affinity (ratio to native VEGF (8-109)) (KDR (1-3) [3]): 2 fold

B10: LK-VRB-24s (ligand)
chain: APMAEGGGQNHHEVVKFEDVLRRSSCHPIETLVDIFQEYPDEIEYIFKPSCVPLMRCGGCCNSEMLECVPTEESNITMQIMRIKPHQGQHIGEMSFLQHNKCECRPKKD
relative binding affinity (ratio to native VEGF (8-109)) (KDR (1-3) [3]): 10 fold

B11: LK-VRB-26s (ligand)
chain: APMAEGGGQNHHEVVKFEDVLRRSSCHPIETLVDIFQEYPDEIEYIFKPSCVPLMRCGGCCNDEMRECVPTEESNITMQIMRIKPHQGQHIGEMSFLQHNKCECRPKKD
relative binding affinity (ratio to native VEGF (8-109)) (KDR (1-3) [3]): 23 fold

B12: LK-VRB-13s (ligand)
chain: APMAEGGGQNHHEVVKFEDVYQRSSCHPIETLVDIFQEYPDEIEYIFKPSCVPLMRCGGCCNSEMRECVPTEESNITMQIMRIKPHQGQHIGEMSFLQHNKCECRPKKD
relative binding affinity (ratio to native VEGF (8-109)) (KDR (1-3) [3]): 14 fold

B13: LK-VRB-8s* (ligand)
chain: APMAEGGGQNHHEVVKFMDVLQRSYCHPIETLVDIFQEYPDEIEYIFKPSCVPLMRCGGCCNSEMRECVPTEESNITMQIMRIKPHQGQHIGEMSFLQHNKCECRPKKD
notes: 'Y2IL' read as Y21L (codon CTC)
relative binding affinity (ratio to native VEGF (8-109)) (KDR (1-3) [3]): 0.5 fold | Endothelial Cell Proliferation Activity (HUVEC), ratio to native VEGF (8-109) [7]: 1 fold

B14: LK-VRB-3s (ligand)
chain: APMAEGGGQNHHEVVKIEDVFKRSSCHPIETLVDIFQEYPDEIEYIFKPSCVPLMRCGGCCNDEGLECVPTEESNITMQIMRIKPHQGQHIGEMSFLQHNKCECRPKKD
relative binding affinity (ratio to native VEGF (8-109)) [2]: 400 fold | relative binding affinity (ratio to native VEGF (8-109)) (KDR (1-3) [3]): 1 fold | Phosphorylation-Inducing Activity (KIRA), ratio to native VEGF (8-109) [4]: 1 fold

B15: LK-VRB-17s (ligand)
chain: APMAEGGGQNHHEVVKFEDVLRRSYCHPIETLVDIFQEYPDEIEYIFKPSCVPLMRCGGCCNSEMRECVPTEESNITMQIMRIKPHQGQHIGEMSFLQHNKCECRPKKD
relative binding affinity (ratio to native VEGF (8-109)) (KDR (1-3) [3]): 3 fold

B16: LK-VRB-14s (ligand)
chain: APMAEGGGQNHHEVVKFMDVLRRSYCHPIETLVDIFQEYPDEIEYIFKPSCVPLMRCGGCCNSEMRECVPTEESNITMQIMRIKPHQGQHIGEMSFLQHNKCECRPKKD
relative binding affinity (ratio to native VEGF (8-109)) (KDR (1-3) [3]): 0.5 fold

B17: LK-VRB-9s (ligand)
chain: APMAEGGGQNHHEVVKFMDVYRRSYCHPIETLVDIFQEYPDEIEYIFKPSCVPLMRCGGCCNSEMRECVPTEESNITMQIMRIKPHQGQHIGEMSFLQHNKCECRPKKD
relative binding affinity (ratio to native VEGF (8-109)) [2]: 300 fold | relative binding affinity (ratio to native VEGF (8-109)) (KDR (1-3) [3]): 0.5 fold

B18: LK-VRB-25s (ligand)
chain: APMAEGGGQNHHEVVKFEDVLRRSSCHPIETLVDIFQEYPDEIEYIFKPSCVPLMRCGGCCNSEGRECVPTEESNITMQIMRIKPHQGQHIGEMSFLQHNKCECRPKKD
relative binding affinity (ratio to native VEGF (8-109)) (KDR (1-3) [3]): 4 fold

B19: LK-VRB-20s (ligand)
chain: APMAEGGGQNHHEVVKFMDVLRRSSCHPIETLVDIFQEYPDEIEYIFKPSCVPLMRCGGCCNSEMRECVPTEESNITMQIMRIKPHQGQHIGEMSFLQHNKCECRPKKD
relative binding affinity (ratio to native VEGF (8-109)) (KDR (1-3) [3]): 2 fold

B20: LK-VRB-22s (ligand)
chain: APMAEGGGQNHHEVVKFEDVLRRSSCHPIETLVDIFQEYPDEIEYIFKPSCVPLMRCGGCCNDEMLECVPTEESNITMQIMRIKPHQGQHIGEMSFLQHNKCECRPKKD
relative binding affinity (ratio to native VEGF (8-109)) (KDR (1-3) [3]): 4 fold

B21: LK-VRB-15s (ligand)
chain: APMAEGGGQNHHEVVKFMDVLQRSSCHPIETLVDIFQEYPDEIEYIFKPSCVPLMRCGGCCNSEMRECVPTEESNITMQIMRIKPHQGQHIGEMSFLQHNKCECRPKKD
relative binding affinity (ratio to native VEGF (8-109)) (KDR (1-3) [3]): 2 fold

B22: LK-VRB-21s (ligand)
chain: APMAEGGGQNHHEVVKFEDVLRRSSCHPIETLVDIFQEYPDEIEYIFKPSCVPLMRCGGCCNSEGLECVPTEESNITMQIMRIKPHQGQHIGEMSFLQHNKCECRPKKD
relative binding affinity (ratio to native VEGF (8-109)) (KDR (1-3) [3]): 3 fold

B23: LK-VRB-12s (ligand)
chain: APMAEGGGQNHHEVVKFEDVYRRSYCHPIETLVDIFQEYPDEIEYIFKPSCVPLMRCGGCCNSEMRECVPTEESNITMQIMRIKPHQGQHIGEMSFLQHNKCECRPKKD
relative binding affinity (ratio to native VEGF (8-109)) (KDR (1-3) [3]): 0.4 fold
